Source: patent publication US20220340682A1 (Sanofi, published 2022)

T1: human CEACAM5 expressed on the surface of tumor cells (human, UniProt P06731 35-685)
T1 construct: Endogenous CEACAM5 of human tumor cells; also called hCEACAM5 on MKN45 cells; CEACAM5 on CR-IGR-034P primary colon tumor cells
T1 sequence: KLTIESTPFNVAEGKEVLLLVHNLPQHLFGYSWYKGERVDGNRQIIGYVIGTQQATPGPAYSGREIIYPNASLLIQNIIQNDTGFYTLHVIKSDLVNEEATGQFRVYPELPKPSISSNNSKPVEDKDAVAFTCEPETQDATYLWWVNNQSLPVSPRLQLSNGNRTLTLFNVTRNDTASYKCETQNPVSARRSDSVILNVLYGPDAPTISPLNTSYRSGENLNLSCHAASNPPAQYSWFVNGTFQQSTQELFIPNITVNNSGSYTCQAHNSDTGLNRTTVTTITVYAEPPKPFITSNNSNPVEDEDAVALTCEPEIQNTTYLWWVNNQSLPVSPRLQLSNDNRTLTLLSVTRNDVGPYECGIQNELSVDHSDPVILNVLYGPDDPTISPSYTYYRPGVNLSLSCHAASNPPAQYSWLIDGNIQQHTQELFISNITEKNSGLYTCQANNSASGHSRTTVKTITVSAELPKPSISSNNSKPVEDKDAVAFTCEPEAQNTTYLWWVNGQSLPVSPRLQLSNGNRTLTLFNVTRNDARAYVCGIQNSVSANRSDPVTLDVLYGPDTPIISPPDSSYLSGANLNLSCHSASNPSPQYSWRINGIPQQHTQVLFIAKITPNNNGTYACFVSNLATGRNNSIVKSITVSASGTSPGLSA

T2: CEACAM5 A2B2, human CEACAM5 A2-B2 domain (321-498) (human, UniProt P06731 321-498)
T2 construct: Followed by 6 amino acid His-Tag; also called hCEACAM5-A2-B2
T2 sequence: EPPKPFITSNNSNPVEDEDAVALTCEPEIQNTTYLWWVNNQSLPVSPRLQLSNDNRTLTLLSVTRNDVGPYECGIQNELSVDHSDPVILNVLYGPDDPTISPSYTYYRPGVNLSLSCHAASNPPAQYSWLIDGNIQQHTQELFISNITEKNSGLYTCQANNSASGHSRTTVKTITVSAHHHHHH

T3: CEACAM5 A3B3, human CEACAM5 A3-B3 domain (499-685) (human, UniProt P06731 499-685)
T3 construct: Followed by 6 amino acid His-Tag; also called hCEACAM5 A3-B3; human A3B3 domain
T3 sequence: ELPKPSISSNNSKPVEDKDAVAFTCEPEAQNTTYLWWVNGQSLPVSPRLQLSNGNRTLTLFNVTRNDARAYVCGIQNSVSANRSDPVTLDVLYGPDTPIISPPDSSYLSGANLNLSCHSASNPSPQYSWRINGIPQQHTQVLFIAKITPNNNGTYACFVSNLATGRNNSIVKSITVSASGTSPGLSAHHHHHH

T4: hCEACAM5 NA1B1, human CEACAM5 N-A1-B1 domain (35-320) (human, UniProt P06731 35-320)
T4 construct: Followed by 6 amino acid His-Tag; also called hCEACAM5 N-ter-A1-B1
T4 sequence: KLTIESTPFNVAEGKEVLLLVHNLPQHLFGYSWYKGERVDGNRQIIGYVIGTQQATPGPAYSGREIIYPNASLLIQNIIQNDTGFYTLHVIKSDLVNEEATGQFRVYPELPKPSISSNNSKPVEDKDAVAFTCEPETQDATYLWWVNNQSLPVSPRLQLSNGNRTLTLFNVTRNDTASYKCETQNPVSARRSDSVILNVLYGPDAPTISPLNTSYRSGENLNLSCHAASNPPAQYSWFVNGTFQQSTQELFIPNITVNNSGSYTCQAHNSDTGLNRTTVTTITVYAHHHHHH


Columns and labels:
[1] = target: T1, human CEACAM5 expressed on the surface …; test: apparent KD, flow cytometry on CR-IGR-034P primary colon tumor cells
Method: Advanced human primary colon tumor CR-IGR-034P (Julien et al., Clin Cancer Res Oct. 1, 2012 18:5314-5328) was obtained from Patient-derived xenograft in mice. Tumor CR-IGR-034P was enzymatically dissociated using collagenase Type IV (Invitrogen; #17104-019) and deoxyribonuclease I (Invitrogen; #18047-019) for 1 h at […], Cell viability was estimated by Viacount application using Guava® easyCyte™ 8HT Flow Cytometry System. […] 100 μL/well of goat anti-mouse IgG conjugated with Alexa647 (Invitrogen; # A2135) or goat anti-human IgG conjugated with Alexa488 (Invitrogen; # A11013) was added for 45 min at 4° C. and washed three times with PBS 1% BSA. The antibody binding was evaluated after centrifugation and resuspension of cells by adding 200 pliwell PBS 1% BSA and read using Guava® easyCyte™ 8HT Flow Cytometry System. Apparent KD and EC50 values were estimated using BIOST@T-BINDING and BIOST@T-SPEED softwares, respectively.

[2] = target: T1, human CEACAM5 expressed on the surface …; test: flow cytometry on MKN45 cells
Method: The apparent affinity of anti-CEACAM5 antibodies to hCEACAM5 expressed on the surface of human MKN45 (DSMZ, ACC 409) tumoral cells were determined by Guava® easyCyte™ 8HT Flow Cytometry System. MKN45 tumoral cells were coated at 40,000 cells/well on 96-well High Bind plate (MSD L15XB-3) and 100 μL/well of anti-CEACAM5 antibodies were added in 2-fold serial dilutions starting at 20 μg/ml up to 12 dilutions in assay diluant for 45 min at 4° C. and washed three times with PBS 1% BSA. 100 μL/well of goat anti-mouse IgG conjugated with Alexa647 (Invitrogen; # A2135) was added for 45 min at 4° C. and washed three times with PBS 1% BSA. The antibody binding was evaluated after centrifugation and resuspension of cells by adding 200 μl/well PBS 1% BSA and read using Guava® easyCyte™ 8HT Flow Cytometry System. Apparent KD and EC₅₀ values were estimated using BIOST@T-BINDING and BIOST@T-SPEED softwares, respectively.

[3] = target: T2, CEACAM5 A2B2, human CEACAM5 A2-B2 …; test: ELISA on CEACAM5 domains
[4] = target: T3, CEACAM5 A3B3, human CEACAM5 A3-B3 …; test: ELISA on CEACAM5 domains
[5] = target: T4, hCEACAM5 NA1B1, human CEACAM5 N-A1-B1 …; test: ELISA on CEACAM5 domains

| Binder | Kd [1] [nM] | EC50 [2] [nM] | percentage of binding compared to full binding with human CEACAM5 [3] [%] | percentage of binding compared to full binding with human CEACAM5 [4] [%] | percentage of binding compared to full binding with human CEACAM5 [5] [%] |
| --- | --- | --- | --- | --- | --- |
| antibody MAb4 (antibody, IgG1, V domains shown, Murine monoclonal from hybridoma, IgG1, kappa) VH: EVQLVESGGGLVKPGGSLKLSCAASGFTFSSYDMSWVRQTPEKRLEWVAFISSYGGRTYYADTVKGRFTISRDNAKNTLYLQMSSLKSEDTAMFYCAAHYFGTSGPFAYWGQGTLVTVSA VL: DIQMTQSPASLSASVGETVTITCRASENIYSYFAWYQQKQGKSPQLLVYNAKILAEGVPSRFSGSGSGTQFSLKINSLQPEDFGTYYCQHHYGIPFTFGSGTKLELK | 0.16 | 4.9 | – | – | – |
| huMAb2-3 (antibody, human IgG1, kappa, V domains shown, Humanized MAb2, human IgG1 / Ckappa; also called MAb2_VL1cVH1a-IgG1) VH: EVQLQESGPGLVKPGGSLSLSCAASGFVFSSYDMSWVRQTPERGLEWVAYISSGGGITYAPSTVKGRFTVSRDNAKNTLYLQMNSLTSEDTAVYYCAAHYFGSSGPFAYWGQGTLVTVSS VL: DIQMTQSPASLSASVGDRVTITCRASENIFSYLAWYQQKPGKSPKLLVYNTRTLAEGVPSRFSGSGSGTDFSLTISSLQPEDFATYYCQHHYGTPFTFGSGTKLEIKR | – | – | 0.4 | 100 | 0.4 |
| huMAb2-1 (antibody, V domains shown, Humanized MAb2 (VL1 + VH1) fused to human IgG1 and human Ckappa constant domains; also called MAb2_VL1VH1-IgG1; MAb2VL1VH1-IgG1) VH: EVQLQESGPGLVKPGGSLSLSCAASGFVFSSYDMSWVRQTPERRLEWVAYISSGGGITYFPSTVKGRFTVSRDNAKNTLYLQMNSLTSEDTAIYYCAAHYFGSSGPFAYWGQGTLVTVSA VL: DIQMTQSPASLSASVGDTVTITCRASENIFSYLAWYQQKPGKSPKLLVYNTKTLAEGVPSRFSGSGSGTQFSLTISSLQPEDFGSYYCQHHYGTPFTFGSGTKLEIK | – | – | 0.3 | 100 | 0.4 |
| huMAb2-2 (antibody, V domains shown, Humanized MAb2 (VL1a + VH1a) fused to human IgG1 and human Ckappa constant domains; also called MAb2_VL1aVH1a-IgG1; MA2_VL1aVH1a-IgG1) VH: EVQLQESGPGLVKPGGSLSLSCAASGFVFSSYDMSWVRQTPERGLEWVAYISSGGGITYAPSTVKGRFTVSRDNAKNTLYLQMNSLTSEDTAVYYCAAHYFGSSGPFAYWGQGTLVTVSS VL: DIQMTQSPASLSASVGDRVTITCRASENIFSYLAWYQQKPGKSPKLLVYNTKTLAEGVPSRFSGSGSGTDFSLTISSLQPEDFATYYCQHHYGTPFTFGSGTKLEIK | – | – | 0.3 | 100 | 0.4 |
| chMAb2 (antibody, human IgG1, kappa, V domains shown, Chimeric, human IgG1, Ck isotype; also called MAb2-IgG1; chimeric MAb2) VH: EVQLQESGGVLVKPGGSLKLSCAASGFVFSSYDMSWVRQTPEKRLEWVAYISSGGGITYFPDTVQGRFTVSRDNAKNTLYLQMNSLKSEDTAIYYCAAHYFGSSGPFAYWGQGTLVTVSA VL: DIQMTQSPASLSASVGETVTITCRASENIFSYLAWYQQKQGKSPQLLVYNTKTLAEGVPSRFSGSGSGTQFSLKINSLQPEDFGSYYCQHHYGTPFTFGSGTKLEIKR | – | – | 0.3 | 100 | 0.5 |
| huMAb2-4 (antibody, human IgG1, kappa, V domains shown, Humanized MAb2, human IgG1 / Ckappa; also called MAb2_VL1d VH1-IgG1; MAb2_VL1dVH1-IgG1) VH: EVQLQESGPGLVKPGGSLSLSCAASGFVFSSYDMSWVRQTPERRLEWVAYISSGGGITYFPSTVKGRFTVSRDNAKNTLYLQMNSLTSEDTAIYYCAAHYFGSSGPFAYWGQGTLVTVSA VL: DIQMTQSPASLSASVGDTVTITCRASENIFSYLAWYQQKPGKSPKLLVYNTRTLAEGVPSRFSGSGSGTQFSLTISSLQPEDFGSYYCQHHYGTPFTFGSGTKLEIKR | – | – | 0.3 | 100 | 0.3 |

Next, values leading:

| Kd [1] [nM] | EC50 [2] [nM] | percentage of binding compared to full binding with human CEACAM5 [3] [%] | percentage of binding compared to full binding with human CEACAM5 [4] [%] | percentage of binding compared to full binding with human CEACAM5 [5] [%] | Binder |
| --- | --- | --- | --- | --- | --- |
| 0.5 | 0.73 | – | – | – | antibody MAb5 (antibody, IgG1, V domains shown, Murine monoclonal from hybridoma, IgG1, kappa) VH: ELQLVESGGVLVKPGGSLKLSCAASGFAFSSYDMSWVRQTPEKRLEWVTYINSGGGITYYPDTVKGRFTISRDNARNTLYLQMSSLKSEDTAIYYCTAHYFGSSGPFAYWGQGTLVTVSA VL: DIQMTQSPASLSASVGETVTITCRASENIYSYLAWYQQKQGKSPQLLVYNAKTLTEGVPSRFSGSGSGTQFSLKINSLQPEDFGSYYCQHHYGTPFTFGSGTKLEIK |
| 1.92 | 16 | – | – | – | antibody MAb1 (antibody, IgG1, V domains shown) VH: EVMLVESGGGLVKPGGSLKLSCAASGFTFSSYAMSWVRQTPEKRLEWVATISSGGSYIYYLDSVKGRFTISRDNAKNTLYLQMSSLRSEDTAMYYCARPAYYGNPAMDYWGQGTSVTVSS VL: DILMTQSQKFMSTSVGDRVSVTCKASQNVGTNVAWYQQKPGQSPKPLIYSASYRYSGVPDRFTGSGSGTDFTLTISNVQSEDLAEYFCQQYNSYPLYTFGGGTKLEIK |
| 1.01 | 6.2 | – | – | – | antibody MAb3 (antibody, IgG1, V domains shown, Murine monoclonal from hybridoma, IgG1, kappa) VH: EVKLVESGGGLVKPGGSLTLPCAASGFTFSRYAMSWVRQTPEKRLEWVASISSGGDTYYPDSVKGRFTVSRDNARNILFLQMSSLRSEDTGMYYCARVNYYDSSFLDWWGQGTTLTVSS VL: DIVMTQSQRFMSTLEGDRVSVTCKASQNVGTNVAWYQQKPGQSPKALIYSASYRYSGVPDRFTGSGSGTDFTLTISNVQSEDLAEYFCQQYNNYPLYTFGGGTKLEIK |
